Data on 13 sequences can be found in the DeepSol protein solubility set.

A short description of this data set: soluble on expression in E. coli; label from the status in PepcDB or PDB records.
Consider “MNHPAHHGPTVTPKRRHPDSTGAAPVGIVIATRNRRASLAVTVRNLLALPERPDVLVVDNASTDDTRAMLARDFPQVRVLPLPYNRGALARTHGVRALDTPYVAFSDDDSWWAPGALGAAARHFDDHPRLGLLSARTLVGPGDAADPLNDLLADSPLGTATDLPGTQVLGFLGCAAVARRTAYLDAGGYHPLLFFGGEETLLAYDLAARGWGVTHCPDVIAHHHPHPRPRTGRPAVVRRNALLTAWLRRPLPHALARTRALAADARRDPHARHALRETLTRLPAALRARRPLPPHVERAARLLDGADGPDGPGGAVSLEHHHHHH”, for which the “soluble on expression in E. coli” value is “soluble”.

Turning to “MNHRDKQIDSGSGSGENRRTYDCDICKRGFTNPQALGGHNNIHRRERERYPSSSSSSHSFPFSLPLPSQSPSSSTNFTNPPPYFPTIESYLHQGSQPPINPSHNTQYFGSSSSSRGGGRFAQGASHDLNLSLGLGSMNEDDDTHRSPPETGGSQPQDGDLDLDLRLGGHRHH”, the “soluble on expression in E. coli” value is “soluble”.

“MNINRFVLAAPGSGSGKTTVAALLCLALRARGLSVQPFKLGPDYLDPTHLTRAAGRETRNLDSFLLAPERLQTLFARAAAQAEVCVIEGVMGLYDGRDPGSDEHSTAALARLLGARVVLVIDAGGMARTVAAVAAGLRDFGEGVNVAGVILNRVGSVRHAELCAEALTQVGLACLGFLLQDDALRLPSRHLGLLSAQQASWDEAAALAAARYLDLDALLNVTRAPDLSSSSSMSPPPSTRIAYAFDSAFHFYYPDALDELRSCGAELVPFSPLEDAGVPEDVGGLLLGGGYPEAHAAELAANERMRRSVRAFAASGRPVVGECGGLMYLSETLEDENGVTHEMCGVVPYRTRMARRLSLGYRDALSLADSPLLPAGTAIRGHEFHFSTLTHEPTHPAYRWRTHDGQEVAEGYARGNVLASYLHLHYGGFPAVAARLVERCQLEHHHHHH”: the “soluble on expression in E. coli” value is “not soluble”.

Turning to “MNIRCARVDDLMSMQNANLMCLPENYQMKYYFYHALSWPQLSYIAEDHKGNVVGYVLAKMEEDPGEEPHGHITSLAVKRSYRRLGLANKMMDQTARAMVETYNAKYVSLHVRVSNRAALNLYKNTLKFEIVDTEPKYYADGEDAYAMRRDLAKWAEERNIEPADREAYTTAKTTDDKKKNRS”, the “soluble on expression in E. coli” value is “not soluble”.

Take “MNIRQAKTSDAAAIAPLFNQYREFYRQASDLQGAEAFLKARLENHESVILIAEENGEFIGFTQLYPTFSSVSMKRIYILNDLFVVPHARTKGAGGRLLSAAKDYAGQNGAKCLTLQTEHHNRKARSLYEQNGYEEDTGFVHYCLNVPAK”: the “soluble on expression in E. coli” value is “soluble”.

On to “MNISPKAIKVRNIWIGGTEPCICAPVVGEDDRKVLREAEEVCRKQPDLLEWRADFFRAIDDQERVLATANGLRNIAGEIPILFTIRSEREGGQPIPLNEAEVRRLIEAICRSGAIDLVDYELAYGERIADVRRMTEECSVWLVVSRHYFDGTPRKETLLADMRQAERYGADIAKVAVMPKSPEDVLVLLQATEEARRELAIPLITMAMGGLGAITRLAGWLFGSAVTFAVGNQSSAPGQIPIDDVRTVLSILQTYSR”, for which the “soluble on expression in E. coli” value is on record as “soluble”.

With “MNITQILSQELSATAAQITAAVELLDDGATVPFIARYRKEATGGLDDTQLRRLAERLQYLRELEERKAVVLKSIEEQGKLSDDLRAQIEAADNKTALEDLYLPYKPKRRTKAQIAREHGLQPLADVLLAEQSQDVEAAAQGYLNENVPDAKAALDGARAILMEQFAEDAELIGTLRDKLWNEAEIHAQVVEGKETEGEKFSDYFDHREPVRTMPSHRALAVLRGRNEGVLNIALKYQPDDTPITRQSEYEQIIACRFKVSDGHKWLRDTVRLTWRAKIFLSLELEALGRLKEAADTDAITVFARNLKDLLLVAPAGRLTTLGLDPGYRNGVKCAVVDDTGKLLDTVIVYLHQENNMLATLSRLIKQHGVKLIAIGNGTASRETDKIAGELVRGMPEMGLHKIVVSEAGASIYSASELAAREFPDLDVSLRGAVSIARRLQDPLAELVKIDPKSIGVGQYQHDVNQNQLAKSLDAVVEDCVNAVGVDVNTASAPLLARISGLNQTLAQNIVAYRDENGAFDSRKKLLKVPRLGEKTFEQAAGFLRINGGKEPLDASAVHPEAYPVVAKMLAQQGISAAELIGNRERVKQIKASDFTDERFGLPTILDILSELEKPGRDPRGEFQTASFAEGIHEISDLQVGMILEGVVSNVANFGAFVDIGVHQDGLVHISALSNKFVQDPREVVKAGDVVKVKVLEVDAARKRIALTMRLDDEPGGAKHKMPSENRSRERTAGRKPQRNDRAPANSAMADAFAKLKR”, the “soluble on expression in E. coli” value is given as “soluble”.

In the case of “MNIVSTSVALLLAAASAEVENRKSSNATEVNMTETAQIENHPYVGMWVTGDGHIRQELLPNGRYDEARGKRKSAYQGRYEVKGNHIDYWDDTGFTADGEFVDDVLHHGGMIFYRQK”, the “soluble on expression in E. coli” value is on record as “not soluble”.

“MNIWGPHIVQARRAVAIFCRGLLVLMPALSLLGLTAEAEPRSADDRQRIAAVTAPATGFTVAEPFEQLPGGAATVSGDLGRDAFSRPSANMSFERELDFHLGQALFDKLWVASPSSTKASDGLGPLYNARSCQACHIRDGRGQVSGGPGLVLRIGRVRGDGVLPDPLFGLQIQDSAVPGLRPEARIAVSQAETEVTLNGGEVAVLRKPRYRLDAAEGTLHAESTLSPRLAPQMIGLGLLEAIPEAEILARADPDDRDGDGISGRPNRVHDPETGQEALGRFGWKAGAASVLDQTAAAFASDIGISSPLRPAPWGDCTELQVECRAALHGDGDPRGAEIDGPALALTAFYSRNLAVPARRDVDDPDVLRGKRVFYGIGCPACHVPKHVTAQLSDQPEQSFQLIWPYTDLLLHDMGAGLADELPQGLASGREWRTAPLWGIGLTEQVSGQARFLHDGRARTLLEAVLWHGGEAAAQRDRVIALAPEDRAALIRFLESL”: the “soluble on expression in E. coli” value was “not soluble”.

On to “MNKERQDLSGLEAVWLFGYGSLIYKVDFPYLERAAASIQGWSRRFWQGSHDHRGTPEAPGRVLTLTETPGEECTGMAYKVSPDVFEHLDHREKNGYLRFTTPMSFRDGSQQEGLVYIATEDNEAFLGEATASEIASHIARSSGPSGPNAEYLVKLQLALQQLGVNDPHITQVYEALMADRASLEHHHHHH”, for which the “soluble on expression in E. coli” value is on record as “soluble”.

For the sequence “MNKLLSYYQKELAFLRKQGIEFAKKYPKVARRLGYNQGGSEDPHVQRLTESFAFLSSKIHQRLDEDLPELMEALLRNLAPQFLYNYPSSCIVSFEPDRKSSGITSTYRVPSGTSLYSRYKYKTICQFRTVYPLTIVPATVNKARIHYDNSSSLWKIELNLDVFDGANFSLDFVRFYLNGPATVTGIIYTLLCDEVDNIVLQRNNDVLYDISANISGAGFYESEVTLPQKGNVSYIHNLILDYFSFPERFNFIDIEFDSGIELCSGDSVRIEITLKSSAEKYEPDRIERNVSERLFKVNCSPVVNLFEKKTEPLRLSDGQDEYQVNTDLYSRNEVLIWDINKVTLHRYENDIVKQFPLKNLFGLEHSVIKQSCNIFWHSSCYRSSSERGNFEESVYIRLSDDGGAQSCIMTGDVLSIDAICTNGNIPSSINNGDPDGDFDCDIDIAQLRITALNRPSRMLPAMALKGMNWRIVSQLSLNFVLLSGTDGAMKLREMLSIYNYNNNHSISIFIEWIKELQITPVSSRLPGIYPPVTARGIDITVTLSKDADMHPECFMFCSFLDHFLGLHAPVNSFTRMITVIEHEEHTRRVWPIRAGKLTWL”, the “soluble on expression in E. coli” value was “not soluble”.

For “MNKPVAIFLMGPTASGKTDLAIALRKQLPVEVISVDSALIYKEMDIGTAKPTAAELAQAPHRLIDILDPKESYSAMHFHADALHAMADITASGRIPLLVGGTMLYYKALLEGLSPLPSANEHIRTEIEAHANQYGWASLHQQLTQIDPLAASRINANDSQRINRALEVFYLTGKNLTELTAQQGECLPYQVLQFAIAPQERAVLHQRIEQRFHKMMELGFLTEVEKLYARGDLHPDLPAIRCVGYRQMWQHLAGEISLDEAIYKGICATRQLAKRQLTWLRGWRSEITWLDSLDPTSSQEKMIQNLEQNFIKLLEHHHHHH”, the “soluble on expression in E. coli” value was “soluble”.

As to “MNKQLLSCSLKSGKQVTMVVASVATDGVDQQVEISYYDQKVIGNGSFGVVFLAKLSTTNEMVAIKKVLQDKRFKNRELQIMRKLNHPNIVKLKYFFYSSGEKKDELYLNLILEYVPETVYRVARHYSKQRQQIPMIYVKLYMYQLLRSLAYIHSIGICHRDIKPQNLLIDPESGVLKLCDFGSAKYLVRNEPNVSYICSRYYRAPELIFGATNYTNSIDVWSAGTVMAELLLGQPIFPGDSGVDQLVEIIKVLGTPTREQIQSMNPNYKEFKFPQIKAHPWNKVFRVHTPAEAIDLISKIIEYTPTSRPTPQAACQHAFFDELRNPDARLPSGRPLPTLEMDGPMGTGEVSTTSGDVAGPSA”, the “soluble on expression in E. coli” value is reported as “not soluble”.
